In US20260306676A1, “FLUORESCEIN-LABELED NERVE TARGETING PEPTIDE FORMULATIONS AND RELATED METHODS” (ALUME BIOSCIENCES, INC., priority 2023, published 2026):
Counter-ions that a name gives are not always drawn.

Tests used:
[1] = Effect of organic amine compounds on solubility of ALM-488 (pH titration)
Experimental: To assess formulations that could be used to prepare ~50 mg/vial samples of ALM-488, and samples having an ALM-488 concentration of ~50 mg/mL, formulations having different organic amine compounds were studied. Each of these samples included (i) ALM-488 hydrochloride, (ii) a suitable base appropriate for a freeze-dried formulation (to adjust solution pH to optimal 7-8, as described in Examples 4 and 5), and (iii) at least one organic amine compound functioning as a pH-adjusting agent, bulking agent and/or a tonicity-adjusting agent. […] 55-60 mg/mL solutions of ALM-488 (pH 1.8-1.9) were titrated by gradual addition of 750 mM arginine, 1 M Tris, or 1 M meglumine.

[2] = Thermogravimetric analysis of purified ALM-488 chloride salt; format: physicochemical
[3] = Karl Fisher water content of purified ALM-488 chloride salt; format: physicochemical; details: oven 100° C.
Experimental: Karl Fisher titration was carried out on the chloride salt of ALM-488 using a Mettler Toledo Stromboli automatic oven sample changer. The instrument was standardized with a Hydranal® Water standard (Fluka). The solid ALM-488 sample was weighed into a sample vial and was heated to 100° C. in the oven, and the water vaporized from the sample was transferred to the titrator cell by purge gas.

[4] = Influence of storage temperature on stability of ALM-488 solution (HPLC); format: physicochemical; details: 50 mg/mL in sterile water for injection
Experimental: To evaluate whether the ALM-488, HCl salt can be supplied in the form of a concentrated frozen solution, 50 mg/mL solutions of the HCl salt were prepared in water and evaluated for storage stability at different temperatures. The solutions having pH of 1.87 were prepared in sterile water for injection, and these solutions were stored at different storage temperatures (−20° C., 5° C. and 40° C.) and were analyzed using the HPLC method of Table 3 at different time periods.

[5] = pH-moderated solubility (NaOH titration) of ALM-488 salts; format: physicochemical
Experimental: A titration experiment was carried out using the ALM-488, HCl salt to determine if a nominal 40-50 mg/mL or higher solubility could be retained as pH is increased by gradual addition of NaOH. […] At solution pH values <4 the peptide remained in solution at concentrations >50 mg/mL. Above pH 4, the peptide precipitated. […] Dilution of the mixture due to base addition decreased the peptide concentration to ~47 mg/mL at pH values >7.
FIG. 8 is an overlay of the titration curves for ALM-488 hydrochloride and the ALM-488 acetate.

CC(C)[C@H](NC(=O)[C@H](Cc1ccc(O)cc1)NCCCCC(=O)[C@H](Cc1ccc(O)cc1)NC(=O)[C@@H]1CCCN1C(=O)[C@H](CCC(=O)O)NC(=O)[C@H](CCC(=O)O)NC(=O)[C@H](Cc1c[nH]c2ccccc12)NC(=O)[C@@H]1CCCN1C(=O)[C@@H](NC(=O)[C@H](CCC(N)=O)NC(=O)c1ccc2c(c1)C(=O)OC21c2ccc(O)cc2Oc2cc(O)ccc21)C(C)C)C(=O)N[C@H](C(=O)N[C@@H](CCCCN)C(=O)N[C@@H](CCCCN)C(=O)N[C@@H](CO)C(=O)N[C@@H](CO)C(=O)NCC(=O)NCC(N)=O)C(C)C [ALM-488, HCl salt]
Calculated total ALM-488 peptide concentration ([1]; 107 mM tris (pH 7.3)): 49.2 mg/mL | Calculated total ALM-488 peptide concentration ([1]; 116 mM arginine (pH 7.61)): 51.7 mg/mL | solubility ([1]; l-arginine titration): < 50 mg/mL | solubility ([1]; meglumine titration): < 50 mg/mL | solution pH ([1]; meglumine titration end (printed 107 mm tris)): 7.88 | Calculated total ALM-488 peptide concentration ([1]; meglumine titration, pH 7.88): 49.2 mg/mL | solution pH ([1]; no L-arginine added): 1.86 | Calculated total ALM-488 peptide concentration ([1]; no L-arginine added (pH 1.86)): 55 mg/mL | solution pH ([1]; no Tris added): 1.89 | Calculated total ALM-488 peptide concentration ([1]; no Tris added (pH 1.89)): 55 mg/mL | solution pH ([1]; no meglumine added): 1.86 | Calculated total ALM-488 peptide concentration ([1]; no meglumine added (pH 1.86)): 55 mg/mL | solubility ([1]; tromethamine (tris) titration): < 50 mg/mL | solution pH ([1]; with 107 mM tris): 7.3 | solution pH ([1]; with 116 mM arginine): 7.61 | onset of steep decrease in weight, presumably degradation ([2]; TGA): 200-250 °C | weight loss by TGA ([2]; heated to 100° C.): 3.96% | water content [3]: 4.08% | solution pH [4]: 1.87 | pH of resistance to pH change upon base addition (may coincide with pKa of glutamic acid and 5-FAM), first ([5]; NaOH titration): ~ 4.5 | pH of resistance to pH change upon base addition (may coincide with pKa of glutamic acid and 5-FAM), second ([5]; NaOH titration): ~ 6.5 | precipitation ([5]; above pH 4, NaOH titration): precipitated | initial pH of mixture ([5]; before NaOH, acetate mixture ~50 mg/mL, listed as ALM-488 hydrochloride): ~ 1.8 | dissolution ([5]; pH >7, NaOH titration): complete dissolution | peptide concentration in solution ([5]; pH >7, after dilution by base addition): ~ 47 mg/mL | appearance ([5]; pH ~4.5 to 5.5, NaOH titration): opaque dispersion | appearance ([5]; pH ~6.5, NaOH titration): clarification of the mixture | solubility ([5]; water with naoh, pH <4, NaOH titration, read-out: concentration remaining in solution): > 50 mg/mL | solubility ([5]; water, visual assessment, solution pH <2, read-out: solubility): > 180 mg/mL | solution pH ([5]; ~55 mg/mL in water, start of titration): 1.7
